According to the supplement of paper PMC10567573:

B1: SMTNL2 (parent)
chain: ETAAGKGKGEARARLKRSQSFGVA
B2: P2RY14 (parent)
chain: KKIFKSHLKSSRNSTSVKKKSSRN

Variants of: B1
Assay: protein stability index of a GFP-peptide fusion (GPS, HEK-293T) (PSI 1-6); higher = more stable
Conditions: c terminus: a fixed tail appended
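Also: lentivirally expressed fusions sorted by FACS into six bins by GFP to DsRed ratio, PSI derived from sequencing read proportions per bin multiplied by bin number.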

Variant | protein stability index
ATAAGKGKGEARARLKRSQSFGVA | 3.91

Variants of: B2
Assay: as above
Conditions: c terminus: a fixed tail appended

Variant | protein stability index
KKIFKSHLKSSRNSTSVKKKSNRN | 4.2
KKIFKSHLKSSRNSTSVKKKSFRN | 2.92
KKIFKSHLKSSRNSTSVKKKSHRN | 4.64
KKIFKSHLKSSRNSTSVKKKSCRN | 4.07
KKIFKSHLKSSRNSTSVKKKSTRN | 4.19
KKIFKSHLKSSRNSTSVKKKSKRN | 4.43
KKIFKSHLKSSRNSTSVKKKSVRN | 4.33
KKIFKSHLKSSRNSTSVKKKSWRN | 3.33
KKIFKSHLKSSRNSTSVKKKSYRN | 3.56
KKIFKSHLKSSRNSTSVKKKSRRN | 4.13
KKIFKSHLKSSRNSTSVKKKSERN | 4.06
KKIFKSHLKSSRNSTSVKKKSMRN | 4.19
KKIFKSHLKSSRNSTSVKKKSARN | 4.01
KKIFKSHLKSSRNSTSVKKKSPRN | 4.21
KKIFKSHLKSSRNSTSVKKKSDRN | 4
KKIFKSHLKSSRNSTSVKKKSIRN | 5.05
KKIFKSHLKSSRNSTSVKKKSQRN | 4.49
KKIFKSHLKSSRNSTSVKKKSGRN | 4.32
KKIFKSHLKSSRNSTSVKKKSLRN | 3.48
KKIFKSHLKSSRNSTSVKKKPSRN | 3.72
KKIFKSHLKSSRNSTSVKKKYSRN | 3.38
KKIFKSHLKSSRNSTSVKKKESRN | 3.8
KKIFKSHLKSSRNSTSVKKKQSRN | 3.88
KKIFKSHLKSSRNSTSVKKKKSRN | 4.48

Variant | protein stability index
KKIFKSHLKSSRNSTSVKKKHSRN | 4.22
KKIFKSHLKSSRNSTSVKKKLSRN | 3.77
KKIFKSHLKSSRNSTSVKKKTSRN | 3.8
KKIFKSHLKSSRNSTSVKKKISRN | 3.98
KKIFKSHLKSSRNSTSVKKKGSRN | 3.8
KKIFKSHLKSSRNSTSVKKKNSRN | 4.17
KKIFKSHLKSSRNSTSVKKKFSRN | 3.73
KKIFKSHLKSSRNSTSVKKKWSRN | 3.3
KKIFKSHLKSSRNSTSVKKKDSRN | 4.42
KKIFKSHLKSSRNSTSVKKKCSRN | 3.84
KKIFKSHLKSSRNSTSVKKKVSRN | 4.14
KKIFKSHLKSSRNSTSVKKKRSRN | 4.27
KKIFKSHLKSSRNSTSVKKKASRN | 3.98
KKIFKSHLKSSRNSTSVKKKMSRN | 3.92
KKIFKSHLKSSRNSTFVKKKSSRN | 3.57
KKIFKSHLKSSRNSTAVKKKSSRN | 4.16
KKIFKSHLKSSRNSTNVKKKSSRN | 4.26
KKIFKSHLKSSRNSTKVKKKSSRN | 4.07
KKIFKSHLKSSRNSTHVKKKSSRN | 4.45
KKIFKSHLKSSRNSTTVKKKSSRN | 4.22
KKIFKSHLKSSRNSTYVKKKSSRN | 4.28
KKIFKSHLKSSRNSTLVKKKSSRN | 4.14
KKIFKSHLKSSRNSTMVKKKSSRN | 4.35
KKIFKSHLKSSRNSTIVKKKSSRN | 3.84

Variant | protein stability index
KKIFKSHLKSSRNSTVVKKKSSRN | 3.82
KKIFKSHLKSSRNSTCVKKKSSRN | 3.38
KKIFKSHLKSSRNSTQVKKKSSRN | 4.48
KKIFKSHLKSSRNSTRVKKKSSRN | 4.22
KKIFKSHLKSSRNSTGVKKKSSRN | 4.1
KKIFKSHLKSSRNSTPVKKKSSRN | 4.26
KKIFKSHLKSSRNSTWVKKKSSRN | 3.69
KKIFKSHLKSSRNSTDVKKKSSRN | 4.08
KKIFKSHLKSSRNSTEVKKKSSRN | 4.13
KKIFKSHLKSSRNSTSVQKKSSRN | 3.67
KKIFKSHLKSSRNSTSVSKKSSRN | 4.21
KKIFKSHLKSSRNSTSVGKKSSRN | 3.99
KKIFKSHLKSSRNSTSVNKKSSRN | 4.27
KKIFKSHLKSSRNSTSVFKKSSRN | 3.54
KKIFKSHLKSSRNSTSVRKKSSRN | 3.88
KKIFKSHLKSSRNSTSVHKKSSRN | 4.07
KKIFKSHLKSSRNSTSVAKKSSRN | 3.8
KKIFKSHLKSSRNSTSVYKKSSRN | 3.66
KKIFKSHLKSSRNSTSVEKKSSRN | 3.98
KKIFKSHLKSSRNSTSVMKKSSRN | 4.1
KKIFKSHLKSSRNSTSVTKKSSRN | 4.17
KKIFKSHLKSSRNSTSVDKKSSRN | 3.98
KKIFKSHLKSSRNSTSVCKKSSRN | 3.34
KKIFKSHLKSSRNSTSVIKKSSRN | 3.7

Variant | protein stability index
KKIFKSHLKSSRNSTSVVKKSSRN | 3.74
KKIFKSHLKSSRNSTSVWKKSSRN | 2.98
KKIFKSHLKSSRNSTSVPKKSSRN | 4.29
KKIFKSHLKSSRNSTSVLKKSSRN | 3.86
KKIFKSHLKSSRNSTSVKKKSSRQ | 4.23
KKIFKSHLKSSRNSTSVKKKSSRK | 3.81
KKIFKSHLKSSRNSTSVKKKSSRG | 4.57
KKIFKSHLKSSRNSTSVKKKSSRW | 3.6
KKIFKSHLKSSRNSTSVKKKSSRH | 4.38
KKIFKSHLKSSRNSTSVKKKSSRR | 4.16
KKIFKSHLKSSRNSTSVKKKSSRC | 3.55
KKIFKSHLKSSRNSTSVKKKSSRT | 4.28
KKIFKSHLKSSRNSTSVKKKSSRE | 3.91
KKIFKSHLKSSRNSTSVKKKSSRS | 4.07
KKIFKSHLKSSRNSTSVKKKSSRP | 3.91
KKIFKSHLKSSRNSTSVKKKSSRA | 4.14
KKIFKSHLKSSRNSTSVKKKSSRV | 4.11
KKIFKSHLKSSRNSTSVKKKSSRI | 3.61
KKIFKSHLKSSRNSTSVKKKSSRD | 4.29
KKIFKSHLKSSRNSTSVKKKSSRL | 4.12
KKIFKSHLKSSRNSTSVKKKSSRM | 3.3
KKIFKSHLKSSRNSTSVKKKSSRF | 3.61
KKIFKSHLKSSRNSTSVKKKSSRY | 3.46
KKIFKSHLKSSRNSTSVKEKSSRN | 3.98

Variant | protein stability index
KKIFKSHLKSSRNSTSVKNKSSRN | 3.98
KKIFKSHLKSSRNSTSVKHKSSRN | 3.99
KKIFKSHLKSSRNSTSVKMKSSRN | 3.92
KKIFKSHLKSSRNSTSVKGKSSRN | 4.02
KKIFKSHLKSSRNSTSVKQKSSRN | 4
KKIFKSHLKSSRNSTSVKVKSSRN | 4.31
KKIFKSHLKSSRNSTSVKRKSSRN | 4.27
KKIFKSHLKSSRNSTSVKDKSSRN | 3.6
KKIFKSHLKSSRNSTSVKTKSSRN | 3.62
KKIFKSHLKSSRNSTSVKLKSSRN | 3.5
KKIFKSHLKSSRNSTSVKSKSSRN | 3.9
KKIFKSHLKSSRNSTSVKFKSSRN | 3.13
KKIFKSHLKSSRNSTSVKPKSSRN | 3.34
KKIFKSHLKSSRNSTSVKAKSSRN | 3.98
KKIFKSHLKSSRNSTSVKCKSSRN | 3.34
KKIFKSHLKSSRNSTSVKYKSSRN | 3.17
KKIFKSHLKSSRNSTSVKIKSSRN | 3.59
KKIFKSHLKSSRNSTSVKWKSSRN | 2.96
KKIFKSHLKSSRNSHSVKKKSSRN | 4.01
KKIFKSHLKSSRNSSSVKKKSSRN | 4.16
KKIFKSHLKSSRNSNSVKKKSSRN | 4.45
KKIFKSHLKSSRNSPSVKKKSSRN | 4.28
KKIFKSHLKSSRNSYSVKKKSSRN | 3.6
KKIFKSHLKSSRNSGSVKKKSSRN | 4.31

Variant | protein stability index
KKIFKSHLKSSRNSISVKKKSSRN | 4.04
KKIFKSHLKSSRNSRSVKKKSSRN | 4.05
KKIFKSHLKSSRNSFSVKKKSSRN | 3.52
KKIFKSHLKSSRNSWSVKKKSSRN | 3.46
KKIFKSHLKSSRNSESVKKKSSRN | 4.35
KKIFKSHLKSSRNSMSVKKKSSRN | 4.01
KKIFKSHLKSSRNSQSVKKKSSRN | 4.09
KKIFKSHLKSSRNSVSVKKKSSRN | 3.55
KKIFKSHLKSSRNSKSVKKKSSRN | 3.84
KKIFKSHLKSSRNSLSVKKKSSRN | 3.98
KKIFKSHLKSSRNSTSVKKNSSRN | 3.86
KKIFKSHLKSSRNSTSVKKESSRN | 3.75
KKIFKSHLKSSRNSTSVKKCSSRN | 3.67
KKIFKSHLKSSRNSTSVKKYSSRN | 3.95
KKIFKSHLKSSRNSTSVKKISSRN | 3.5
KKIFKSHLKSSRNSTSVKKMSSRN | 3.48
KKIFKSHLKSSRNSTSVKKVSSRN | 3.81
KKIFKSHLKSSRNSTSVKKRSSRN | 4.39
KKIFKSHLKSSRNSTSVKKHSSRN | 3.62
KKIFKSHLKSSRNSTSVKKSSSRN | 4.07
KKIFKSHLKSSRNSTSVKKDSSRN | 3.89
KKIFKSHLKSSRNSTSVKKLSSRN | 3.42
KKIFKSHLKSSRNSTSVKKWSSRN | 3.15
KKIFKSHLKSSRNSTSVKKTSSRN | 3.62

Variant | protein stability index
KKIFKSHLKSSRNSTSVKKASSRN | 3.64
KKIFKSHLKSSRNSTSVKKGSSRN | 3.43
KKIFKSHLKSSRNSTSVKKQSSRN | 4.04
KKIFKSHLKSSRNSTSVKKFSSRN | 2.75
KKIFKSHLKSSRNSTSVKKPSSRN | 3.83
KKIFKSHLKSSRNSTSVKKKSSHN | 3.57
KKIFKSHLKSSRNSTSVKKKSSAN | 4.05
KKIFKSHLKSSRNSTSVKKKSSDN | 4.1
KKIFKSHLKSSRNSTSVKKKSSMN | 3.76
KKIFKSHLKSSRNSTSVKKKSSCN | 3.91
KKIFKSHLKSSRNSTSVKKKSSPN | 3.73
KKIFKSHLKSSRNSTSVKKKSSTN | 3.88
KKIFKSHLKSSRNSTSVKKKSSGN | 3.94
KKIFKSHLKSSRNSTSVKKKSSIN | 3.67
KKIFKSHLKSSRNSTSVKKKSSVN | 4.1
KKIFKSHLKSSRNSTSVKKKSSYN | 4.07
KKIFKSHLKSSRNSTSVKKKSSEN | 4.18
KKIFKSHLKSSRNSTSVKKKSSWN | 3.51
KKIFKSHLKSSRNSTSVKKKSSLN | 3.51
KKIFKSHLKSSRNSTSVKKKSSFN | 3.42
KKIFKSHLKSSRNSTSVKKKSSSN | 4.28
KKIFKSHLKSSRNSTSVKKKSSQN | 4.38
KKIFKSHLKSSRNSTSVKKKSSKN | 4.2
KKIFKSHLKSSRNSTSVKKKSSNN | 4.25

Variant | protein stability index
KKIFKSHLKSSRNSTSTKKKSSRN | 4.41
KKIFKSHLKSSRNSTSGKKKSSRN | 3.73
KKIFKSHLKSSRNSTSWKKKSSRN | 3.6
KKIFKSHLKSSRNSTSKKKKSSRN | 4.02
KKIFKSHLKSSRNSTSMKKKSSRN | 4.12
KKIFKSHLKSSRNSTSAKKKSSRN | 4.29
KKIFKSHLKSSRNSTSHKKKSSRN | 4.1
KKIFKSHLKSSRNSTSIKKKSSRN | 3.59
KKIFKSHLKSSRNSTSYKKKSSRN | 3.99
KKIFKSHLKSSRNSTSRKKKSSRN | 4.49
KKIFKSHLKSSRNSTSEKKKSSRN | 3.99
KKIFKSHLKSSRNSTSDKKKSSRN | 4.25
KKIFKSHLKSSRNSTSCKKKSSRN | 4.17
KKIFKSHLKSSRNSTSFKKKSSRN | 3.97
KKIFKSHLKSSRNSTSSKKKSSRN | 4.03
KKIFKSHLKSSRNSTSLKKKSSRN | 4.02
KKIFKSHLKSSRNSTSPKKKSSRN | 4.09
KKIFKSHLKSSRNSTSNKKKSSRN | 4.21
KKIFKSHLKSSRNSTSQKKKSSRN | 4.06
